T1: mouse FcγRII extracellular domain with C-terminal His tag (mouse, UniProt P08101 30-210)
T1 construct: Made on the basis of NCBI NP-034317.1; also called mFcγRII; mFcgRII
T1 sequence: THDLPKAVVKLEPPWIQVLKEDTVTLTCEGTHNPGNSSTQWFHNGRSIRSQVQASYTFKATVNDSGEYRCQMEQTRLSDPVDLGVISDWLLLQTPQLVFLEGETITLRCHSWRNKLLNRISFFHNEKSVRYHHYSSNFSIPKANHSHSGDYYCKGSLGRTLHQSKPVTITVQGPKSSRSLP

T2: mouse FcγRIII extracellular domain with C-terminal His tag (mouse, UniProt P08508 31-215)
T2 construct: Made on the basis of NCBI NP-034318.2; also called mFcγRIII; mFcgRIII
T2 chain: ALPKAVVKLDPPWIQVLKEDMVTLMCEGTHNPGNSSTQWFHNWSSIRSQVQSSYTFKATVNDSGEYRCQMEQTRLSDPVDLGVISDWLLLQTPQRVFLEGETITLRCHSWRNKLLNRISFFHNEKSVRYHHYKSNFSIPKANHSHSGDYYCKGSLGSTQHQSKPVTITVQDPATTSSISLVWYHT


Experiments:
[1] = target: T1, mouse FcγRII extracellular domain with …; assay: SPR Biacore T200; KD mFcγRIII / KD mFcγRII
Method: (§1) Each altered antibody was analyzed for its interaction with each Fcγ receptor prepared above using Biacore T100 (GE Healthcare Japan Corp.), Biacore T200 (GE Healthcare Japan Corp.), Biacore A100, or Biacore 4000. The running buffer used was HBS-EP+ (GE Healthcare Japan Corp.). The assay temperature was set to 25° C. The sensor chips used were chips prepared by immobilizing Protein L (ACTIGEN or BioVision) onto Series S Sensor Chip CM5 (GE Healthcare Japan Corp.) or Series S Sensor Chip CM4 (GE Healthcare Japan Corp.) by the amine coupling method.
(§2) In order to calculate the KD value of each altered antibody for FcγR, kinetic analysis was conducted according to the following method: first, the antibody of interest was captured onto any of these chips and allowed to interact with mFcγR diluted with a running buffer. For the obtained sensorgram, the assay results were globally fit into the 1:1 Langmuir binding model using Biacore Evaluation Software to calculate an association rate constant ka (L/mol/s) and a dissociation rate constant kd (1/s). From these values, the dissociation constant KD (mol/L) was calculated.

[2] = target: T1, mouse FcγRII extracellular domain with …; assay: SPR Biacore T200
Method: as §1, §2

[3] = target: T2, mouse FcγRIII extracellular domain with …; assay: SPR Biacore T200
Method: as §1, §2

Row | Binder | relative I/A (mFcγRII selectivity) (mIgG1 = 1) [1] | relative mFcγRII-binding activity (mIgG1 = 1) [2] | relative mFcγRIII-binding activity (mIgG1 = 1) [3] | I/A (mFcγRII selectivity) [1] | Kd [2] [nM] | Kd [3] [nM]
1 | H237-MB341/MRAL-k0 (antibody, mouse IgG1, kappa, copies: 2 + 2) heavy: QVQLQESGPGLVKPSETLSLTCAVSGHSISHDHAWSWVRQPPGEGLEWIGFISYSGITNYNPSLQGRVTISRDNSKNTLYLQMNSLRAEDTAVYYCARSLARTTAMDYWGEGTLVTVSSAKTTPPSVYPLAPGSAAQTNSMVTLGCLVKGYFPEPVTVTWNSGSLSSGVHTFPAVLQSDLYTLSSSVTVPSSTWPSETVTCNVAHPASSTKVDKKIVPRDCGCKPCICEDWEVEDVFIFPPKPKDVLTITLTPKVTCVVVDISKDDPEVQFSWFVDDVEVHTAQTQPREEQFNSTFRSVSELPIMHQDWLNGKEFKCRVNSAAFPAPIEKTISKTKGRPKAPQVYTIPPPKEQMAKDKVSLTCMITDFFPEDITVEWQWNGQPAENYKNTQPIMDTDGSYFVYSKLNVQKSNWEAGNTFTCSVLHEGLHNHHTEKSLSHSPGK light: not shown | 23.4 | 268 | 11.5 | 31.4 | 0.782 | 24.6
2 | H237-MB367/MRAL-k0 (antibody, mouse IgG1, kappa, mIgG1 with T230E/V231A/P232N/S238E/S239D (EU); copies: 2 + 2) heavy: QVQLQESGPGLVKPSETLSLTCAVSGHSISHDHAWSWVRQPPGEGLEWIGFISYSGITNYNPSLQGRVTISRDNSKNTLYLQMNSLRAEDTAVYYCARSLARTTAMDYWGEGTLVTVSSAKTTPPSVYPLAPGSAAQTNSMVTLGCLVKGYFPEPVTVTWNSGSLSSGVHTFPAVLQSDLYTLSSSVTVPSSTWPSETVTCNVAHPASSTKVDKKIVPRDCGCKPCICEANEVEDVFIFPPKPKDVLTITLTPKVTCVVVDISKDDPEVQFSWFVDDVEVHTAQTQPREEQFNSTFRSVSELPIMHQDWLNGKEFKCRVNSAAFPAPIEKTISKTKGRPKAPQVYTIPPPKEQMAKDKVSLTCMITDFFPEDITVEWQWNGQPAENYKNTQPIMDTDGSYFVYSKLNVQKSNWEAGNTFTCSVLHEGLHNHHTEKSLSHSPGK light: not shown | 25.6 | 159 | 6.2 | – | – | –
3 | H237-MB377/MRAL-k0 (antibody, mouse IgG1, kappa, copies: 2 + 2) heavy: QVQLQESGPGLVKPSETLSLTCAVSGHSISHDHAWSWVRQPPGEGLEWIGFISYSGITNYNPSLQGRVTISRDNSKNTLYLQMNSLRAEDTAVYYCARSLARTTAMDYWGEGTLVTVSSAKTTPPSVYPLAPGSAAQTNSMVTLGCLVKGYFPEPVTVTWNSGSLSSGVHTFPAVLQSDLYTLSSSVTVPSSTWPSETVTCNVAHPASSTKVDKKIVPRDCGCKPCICEVAEVEDVFIFPPKPKDVLTITLTPKVTCVVVDISKDDPEVQFSWFVDDVEVHTAQTQPREEQFNSTFRSVSELPIMHQDWLNGKEFKCRVNSAAFPAPIEKTISKTKGRPKAPQVYTIPPPKEQMAKDKVSLTCMITDFFPEDITVEWQWNGQPAENYKNTQPIMDTDGSYFVYSKLNVQKSNWEAGNTFTCSVLHEGLHNHHTEKSLSHSPGK light: not shown | 21.3 | 127 | 6 | – | – | –
4 | H237-MB338/MRAL-k0 (antibody, mouse IgG1, kappa, copies: 2 + 2) heavy: QVQLQESGPGLVKPSETLSLTCAVSGHSISHDHAWSWVRQPPGEGLEWIGFISYSGITNYNPSLQGRVTISRDNSKNTLYLQMNSLRAEDTAVYYCARSLARTTAMDYWGEGTLVTVSSAKTTPPSVYPLAPGSAAQTNSMVTLGCLVKGYFPEPVTVTWNSGSLSSGVHTFPAVLQSDLYTLSSSVTVPSSTWPSETVTCNVAHPASSTKVDKKIVPRDCGCKPCICEDPEVEDVFIFPPKPKDVLTITLTPKVTCVVVDISKDDPEVQFSWFVDDVEVHTAQTQPREEQFNSTFRSVSELPIMHQDWLNGKEFKCRVNSAAFPAPIEKTISKTKGRPKAPQVYTIPPPKEQMAKDKVSLTCMITDFFPEDITVEWQWNGQPAENYKNTQPIMDTDGSYFVYSKLNVQKSNWEAGNTFTCSVLHEGLHNHHTEKSLSHSPGK light: not shown | 16.5 | 42.2 | 2.6 | – | – | –

Other lines, results leading:

Row | relative I/A (mFcγRII selectivity) (mIgG1 = 1) [1] | relative mFcγRII-binding activity (mIgG1 = 1) [2] | relative mFcγRIII-binding activity (mIgG1 = 1) [3] | I/A (mFcγRII selectivity) [1] | Kd [2] [nM] | Kd [3] [nM] | Binder
5 | 16 | 73.4 | 4.6 | – | – | – | H237-MB337/MRAL-k0 (antibody, mouse IgG1, kappa, copies: 2 + 2) heavy: QVQLQESGPGLVKPSETLSLTCAVSGHSISHDHAWSWVRQPPGEGLEWIGFISYSGITNYNPSLQGRVTISRDNSKNTLYLQMNSLRAEDTAVYYCARSLARTTAMDYWGEGTLVTVSSAKTTPPSVYPLAPGSAAQTNSMVTLGCLVKGYFPEPVTVTWNSGSLSSGVHTFPAVLQSDLYTLSSSVTVPSSTWPSETVTCNVAHPASSTKVDKKIVPRDCGCKPCICEAPEVEDVFIFPPKPKDVLTITLTPKVTCVVVDISKDDPEVQFSWFVDDVEVHTAQTQPREEQFNSTFRSVSELPIMHQDWLNGKEFKCRVNSAAFPAPIEKTISKTKGRPKAPQVYTIPPPKEQMAKDKVSLTCMITDFFPEDITVEWQWNGQPAENYKNTQPIMDTDGSYFVYSKLNVQKSNWEAGNTFTCSVLHEGLHNHHTEKSLSHSPGK light: not shown
6 | 22.4 | 221 | 9.9 | 30 | 0.952 | 28.6 | H237-MB340/MRAL-k0 (antibody, mouse IgG1, kappa, copies: 2 + 2) heavy: QVQLQESGPGLVKPSETLSLTCAVSGHSISHDHAWSWVRQPPGEGLEWIGFISYSGITNYNPSLQGRVTISRDNSKNTLYLQMNSLRAEDTAVYYCARSLARTTAMDYWGEGTLVTVSSAKTTPPSVYPLAPGSAAQTNSMVTLGCLVKGYFPEPVTVTWNSGSLSSGVHTFPAVLQSDLYTLSSSVTVPSSTWPSETVTCNVAHPASSTKVDKKIVPRDCGCKPCICEAWEVEDVFIFPPKPKDVLTITLTPKVTCVVVDISKDDPEVQFSWFVDDVEVHTAQTQPREEQFNSTFRSVSELPIMHQDWLNGKEFKCRVNSAAFPAPIEKTISKTKGRPKAPQVYTIPPPKEQMAKDKVSLTCMITDFFPEDITVEWQWNGQPAENYKNTQPIMDTDGSYFVYSKLNVQKSNWEAGNTFTCSVLHEGLHNHHTEKSLSHSPGK light: not shown
7 | 17 | 197 | 11.6 | – | – | – | H237-MB339/MRAL-k0 (antibody, mouse IgG1, kappa, copies: 2 + 2) heavy: QVQLQESGPGLVKPSETLSLTCAVSGHSISHDHAWSWVRQPPGEGLEWIGFISYSGITNYNPSLQGRVTISRDNSKNTLYLQMNSLRAEDTAVYYCARSLARTTAMDYWGEGTLVTVSSAKTTPPSVYPLAPGSAAQTNSMVTLGCLVKGYFPEPVTVTWNSGSLSSGVHTFPAVLQSDLYTLSSSVTVPSSTWPSETVTCNVAHPASSTKVDKKIVPRDCGCKPCICEVWEVEDVFIFPPKPKDVLTITLTPKVTCVVVDISKDDPEVQFSWFVDDVEVHTAQTQPREEQFNSTFRSVSELPIMHQDWLNGKEFKCRVNSAAFPAPIEKTISKTKGRPKAPQVYTIPPPKEQMAKDKVSLTCMITDFFPEDITVEWQWNGQPAENYKNTQPIMDTDGSYFVYSKLNVQKSNWEAGNTFTCSVLHEGLHNHHTEKSLSHSPGK light: not shown
8 | 27.7 | 114 | 4.1 | – | – | – | H237-MB358/MRAL-k0 (antibody, mouse IgG1, kappa, copies: 2 + 2) heavy: QVQLQESGPGLVKPSETLSLTCAVSGHSISHDHAWSWVRQPPGEGLEWIGFISYSGITNYNPSLQGRVTISRDNSKNTLYLQMNSLRAEDTAVYYCARSLARTTAMDYWGEGTLVTVSSAKTTPPSVYPLAPGSAAQTNSMVTLGCLVKGYFPEPVTVTWNSGSLSSGVHTFPAVLQSDLYTLSSSVTVPSSTWPSETVTCNVAHPASSTKVDKKIVPRDCGCKPCICEAAEVEDVFIFPPKPKDVLTITLTPKVTCVVVDISKDDPEVQFSWFVDDVEVHTAQTQPREEQFNSTFRSVSELPIMHQDWLNGKEFKCRVNSAAFPAPIEKTISKTKGRPKAPQVYTIPPPKEQMAKDKVSLTCMITDFFPEDITVEWQWNGQPAENYKNTQPIMDTDGSYFVYSKLNVQKSNWEAGNTFTCSVLHEGLHNHHTEKSLSHSPGK light: not shown
